Assay results from publication PMC4512291 (Angewandte Chemie (International Ed. in English), 2015).

Target: HPV16 E6 (GPCA fusion) (HPV16, UniProt P03126 1-158)
Test: split reporter

B1: PDZ-LxxLL chimera fused to a Gaussia princeps luciferase fragment (GPCA) (designed binder)
chain: GKPFFTRNPSELKGKFIHTKLRKSSRGFGFTVVGGDEPDEFLQIKSLVLDGPAALDGKMETGDVIVSVNDTCVLGHTHAQVVKIFQSIPIGASVDLELCRGYPLPFDPDDPNTSLVTSVAILDKEPAAAELTLQELLGEER
fold increase of the GPCA binding signal over that with LxxLL: 75 fold | fold increase of the GPCA binding signal over that with PDZ: 25 fold
